Each block holds one binder with its values, some of them ahead of it.
What was measured:
[1] = molecular target: T1, membrane-bound B Lymphocyte Stimulator on U937 plasma membrane preparations (human, UniProt Q9Y275 1-285); test: phage ELISA
T1 construct: Natural protein in plasma membrane fractions of the human cell line U937 coated on ELISA plates; also called U937 plasma membranes; U937 membranes

[2] = molecular target: T2, HIS-tagged B Lymphocyte Stimulator (human, UniProt Q9Y275 71-285); test: phage competition ELISA on U937 plasma membranes
T2 construct: Expressed in E. coli from pQE9 and purified; also called histidine-tagged B Lymphocyte Stimulator; HIS-B Lymphocyte Stimulator; not shown: histidine tag of the pQE9 vector
Description: (§1) For each test phage antibody, 3 aliquots of 20 μl 18% marvel/6×PBS were transferred into separate wells of a 96-well plate. The first aliquot was supplemented with His-tagged B Lymphocyte Stimulator to a final concentration of 60 μg/ml. The second aliquot was supplemented with soluble B Lymphocyte Stimulator to a final concentration of 60 μg/ml. The third aliquot was not supplemented with any competing antigen. One hundred μl of phage supernatant was then added to each aliquot and left to block at room temperature for 1 hour.
(§2) The antigen-coated plates were washed once with PBS before the addition of 200 μl/well 3% marvel/PBS. These plates were left to block at 37° C. for 1 hour and were then washed once with PBS. Duplicate samples of 50 μl pre-blocked phage (above) were added to the antigen-coated plates and left at room temperature for 1 hour. Plates were washed 3× with PBS/0.1% Tween 20, then 3× with PBS. Fifty μl/well mouse anti-M13 HRP (Pharmacia) at 1/5000 in 3% Marvel/PBS was added and left for 1 hour at room temperature. Plates were washed 3 times with PBS/0.1% Tween 20, then 3 times with PBS. Fifty […] HRP-labelled anti-mouse Envision polymer (DAKO) at 1/50 in 3% marvel/PBS was added and left for 1 hour at RT. Plates were washed 3 times with PBS/0.1% Tween 20, then 3 times with PBS. Next, 50 μl/well of TMB (Sigma) was added and plates left to develop for 30 to 60 minutes. When sufficient color has developed, 25 μl/well 0.5M H₂SO₄ was added to stop the reaction. The plates were read at 450 nm on a microtiter plate reader (Bio-Rad 3550).

[3] = molecular target: T3, B Lymphocyte Stimulator, soluble form (human) (human, UniProt Q9Y275 134-285, biotinylated with NHS-biotin where used as biotinylated B Lymphocyte Stimulator); test: phage competition ELISA on U937 plasma membranes
T3 construct: Coated on plastic, captured on streptavidin plates, amine-coupled to a CM5 chip or free in solution, depending on the assay; also called BLyS; immobilized B Lymphocyte Stimulator
Description: as §1, §2

[4] = molecular target: T3, B Lymphocyte Stimulator, soluble form …; test: phage competition ELISA on P388 plasma membranes
Description: P388 plasma membranes (50 μl per well) were coated at 10 μg/ml in PBS onto Falcon 96-well plates overnight at 4° C. The method is otherwise essentially as described Example 16.

[5] = molecular target: T3, B Lymphocyte Stimulator, soluble form …; test: cell-based or functional assay
Fas ligand = molecular target: T4, Fas ligand (human, UniProt P48023 134-281, limits assumed); test: phage ELISA
T4 sequence (looked up): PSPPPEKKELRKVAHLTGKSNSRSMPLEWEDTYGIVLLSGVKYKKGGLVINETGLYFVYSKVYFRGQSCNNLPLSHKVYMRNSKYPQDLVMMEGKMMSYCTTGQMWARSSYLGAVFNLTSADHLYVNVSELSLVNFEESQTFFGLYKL

TNF-alpha = molecular target: T5, TNF-alpha (human, UniProt P01375 77-233); test: phage ELISA
T5 construct: also called TNFα; TNF-α

[6] = molecular target: T6, mouse B Lymphocyte Stimulator (mouse, UniProt Q9WU72 127-309, limits assumed); test: phage ELISA
T6 construct: also called murine B Lymphocyte Stimulator; immobilized mouse B Lymphocyte Stimulator

TNF-beta = molecular target: T7, TNF-beta (human, UniProt P01374 35-205); test: phage ELISA
T7 construct: also called TNFβ; Tumour Necrosis Factor-beta
T7 sequence (looked up): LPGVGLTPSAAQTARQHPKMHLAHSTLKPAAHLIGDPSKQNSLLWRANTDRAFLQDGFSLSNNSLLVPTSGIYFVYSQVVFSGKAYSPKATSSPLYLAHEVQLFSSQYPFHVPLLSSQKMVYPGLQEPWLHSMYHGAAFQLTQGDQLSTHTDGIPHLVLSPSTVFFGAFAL

TRAIL = molecular target: T8, TRAIL (human, UniProt P50591 114-281); test: phage ELISA
T8 construct: also called TNF-related apoptosis inducing ligand

[7] = molecular target: T3, B Lymphocyte Stimulator, soluble form …; test: purified scFv, inhibition of biotinylated BLyS binding to IM9 cells
Description: To a separate 96-well plate, titrate test scFvs in MPBS, in triplicate, over a concentration range from 10 μg/ml down to 0.001 μg/ml were added. The final volume of test scFv in each well was 55 μl. […] Plates were then incubated at room temperature for 30 minutes.
Plates were washed three times in PBST and three times in PBS, tapped dry and 50 μl per well added of streptavidin-Delfia (Wallac) at 1:1000 dilution in the Manufacturer's assay buffer. The plates were then incubated at room temperature for 1 hour and washed six times in Delfia wash solution (Wallac). After tapping the plates dry, 100 μl per well of Delfia enhancement solution (Wallac) was added. The plates were gently tapped to encourage micelle formation, incubated at room temperature for 10 minutes, and fluorescence read on a Wallac 1420 workstation at […].

LIGHT = LIGHT (human, UniProt O43557 74-240, limits assumed); test: phage ELISA
Bovine serum albumin = molecular target: T9, Bovine serum albumin (bovine, UniProt P02769 25-607); test: phage ELISA
T9 construct: also called BSA
T9 sequence (P02769 25-607 limits assumed): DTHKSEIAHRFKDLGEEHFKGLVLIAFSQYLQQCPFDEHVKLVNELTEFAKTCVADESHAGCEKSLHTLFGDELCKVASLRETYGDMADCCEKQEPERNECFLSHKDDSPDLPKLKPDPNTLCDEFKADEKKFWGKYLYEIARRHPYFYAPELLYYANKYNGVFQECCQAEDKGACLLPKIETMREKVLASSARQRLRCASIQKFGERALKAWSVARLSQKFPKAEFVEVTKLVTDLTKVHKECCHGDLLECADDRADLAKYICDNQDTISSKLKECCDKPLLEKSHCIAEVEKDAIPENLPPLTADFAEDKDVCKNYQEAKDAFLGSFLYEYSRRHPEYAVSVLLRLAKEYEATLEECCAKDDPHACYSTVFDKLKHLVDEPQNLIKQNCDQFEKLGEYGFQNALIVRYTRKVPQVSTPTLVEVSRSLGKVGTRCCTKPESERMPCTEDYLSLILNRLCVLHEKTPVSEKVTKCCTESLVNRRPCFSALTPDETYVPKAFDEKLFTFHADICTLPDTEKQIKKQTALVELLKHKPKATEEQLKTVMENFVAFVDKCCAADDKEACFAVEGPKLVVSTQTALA

T8 sequence (P50591 114-281 limits assumed): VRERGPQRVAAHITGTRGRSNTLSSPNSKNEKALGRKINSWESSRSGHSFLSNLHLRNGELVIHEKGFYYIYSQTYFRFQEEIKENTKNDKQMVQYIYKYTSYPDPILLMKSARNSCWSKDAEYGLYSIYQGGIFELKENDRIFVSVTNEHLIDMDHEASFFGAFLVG
T5 sequence (P01375 77-233 limits assumed): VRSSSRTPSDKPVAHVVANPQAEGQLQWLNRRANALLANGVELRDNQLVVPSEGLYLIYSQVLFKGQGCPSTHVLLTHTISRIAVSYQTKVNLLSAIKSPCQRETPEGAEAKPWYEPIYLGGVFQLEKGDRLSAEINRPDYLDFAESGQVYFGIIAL
Sequence of LIGHT (O43557 74-240 limits assumed): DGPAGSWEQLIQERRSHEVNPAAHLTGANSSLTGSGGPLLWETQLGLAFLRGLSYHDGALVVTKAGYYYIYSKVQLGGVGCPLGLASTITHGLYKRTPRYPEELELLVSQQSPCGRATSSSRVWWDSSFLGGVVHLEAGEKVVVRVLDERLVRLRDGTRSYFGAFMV
T6 sequence (Q9WU72 127-309 limits assumed): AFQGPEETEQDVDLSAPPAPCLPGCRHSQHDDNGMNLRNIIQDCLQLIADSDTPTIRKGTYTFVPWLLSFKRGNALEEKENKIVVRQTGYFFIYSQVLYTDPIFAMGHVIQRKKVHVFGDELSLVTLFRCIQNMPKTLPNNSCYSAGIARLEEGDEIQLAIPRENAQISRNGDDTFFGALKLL

- binding result [1]: binds
- binding result [2]: binds
B1: I079B04 (scFv)
scFv: EVQLVESGGGLVQPGGSLRLSCAASGFTFSDYAMSWVRQAPGKGLEWVSAISGSGGSTSYADSVKGRFTISRDNSKNTLYLQMNSLRAEDTAVYYCASLLSDYWGRGTTVTVSSGGGGSGGGGSGGGGSQSVLTQPASVSGSPGQSITISCTGTSSDVGGYNYVSWYQQHPGKAPKLMIYEGSKRPSGVSYRFSGSKSGNTASLTISGLQAEDEADYYCSSYTTRSTRVFGGGTKLTVLG
- binding result [3]: no binding (tested: 60 µg/ml competing antigen)

- binding result [4]: no binding
B2: I099D03 (scFv)
scFv: QVQLVQSGAEVKKPGASVRVSCKSSGYTFTNYGISWVRQAPGQGLEWMGWISNNNGKTYYAQKVQGRVTMTTDTSTSTDYMELRGLRSDDTAIYYCARDNGGGTIGFDYWGRGTLVTVSSGGGGSGGGGSGGGGSAQAVLTQPSSVSGAPGQRVTMSCTGSSSNIGAGYDVHWYQQLPGTAPKLLIYDNTNRPSGVPDRFSGSRSGTSASLAITGLQAEDEADYFCQSYDITLSAVFGTGTKVTVLG

- binding result [1]: binds
- binding result [2]: binds
B3: I079F08 (scFv)
scFv: QMQLVQSGGGVVQPGRSLRLSCAASGFTFSSYGMHWVRQAPGKGLEWVAVISYDGSIKYYADSVKGRFTISRDNSKNTLYLQMNSLRAEDTAVYYCARYYYHSSGSDAFDIWGQGTLVTVPSGGGGSGGGGSGGGGSQSVLTQPPSASGTPGQRVTISCSGSSSNIGSNTVNWYQRLPGAAPQLLIYNNNQRPSGVPDRFSGSKSGTSASLAISGLQSEDEADYYCAAWDDSLNGWVFGGGTKLTVLG
- binding result [3]: no binding (tested: 60 µg/ml competing antigen)

- IC50 for the inhibition of human B Lymphocyte Stimulator induced-proliferation of murine B cells (3H-thymidine incorporation) [5]: 0.06 nM
B4: I116A01 (whole IgG1) (antibody, V domains shown)
VH: QVQLQQSGAEVKKPGSSVRVSCKASGGTFNNNAINWVRQAPGQGLEWMGGIIPMFGTAKYSQNFQGRVAITADESTGTASMELSSLRSEDTAVYYCARSRDLLLFPHHALSPWGRGTMVTVSS
VL: SSELTQDPAVSVALGQTVRVTCQGDSLRSYYASWYQQKPGQAPVLVIYGKNNRPSGIPDRFSGSSSGNTASLTITGAQAEDEADYYCSSRDSSGNHWVFGGGTELTVLG

- binding result (Fas ligand): no binding
- binding result (TNF-alpha): no binding
- binding result [6]: no binding
- binding result (TNF-beta): no binding
- binding result (TRAIL): no binding
- IC50 [7]: 7.9 nM
B5: I007F11 (scFv)
scFv: GVQLVQSGAEVKKPGASVKVSCKASGYTFTNYGITWVRQTPGQGLEWMGWISAYNGNRNYAQKLQGRVTMTTDTSTSTAYMELRSLRSDDTAVYYCVRDGIDILLVPAALMDVWGQGTMVTVSSGGGGSGGGGSGGGGSQSVLTQPASVSGSPGQSITISCTGTSSDVGGYNYVSWYQQHPGKAPKLMIYEGSKRPSGVSNRFSGSKSGNTASLTISGLQAEDEADYYCSSYTTRSTRVFGGGTKLTVLG

- binding result [4]: no binding
B6: I079E02 (scFv)
scFv: QVQLVQSGAEVKKPGSSVKVSCKASGGTFSSYAISWVRQAPGQGLEWMGGIIPIFGTANYAQKFQGRVTITADKSTSTAYMELSSLRSDDTAVYYCARDSGSYYYDAFDIWGKGTMVTVSSGGGGSGGGGSGGGGSDIVMTQSPSTLSASVGDRVTITCRASQGISSWLAWYQQKPGKAPKLLIYAASSLQSGVPSRFSGSGSGTDFTLTISSLQPEDFATYYCQQANSFPLTFGGGTKVEIKR

- binding result (Fas ligand): no binding
- binding result (TNF-beta): no binding
- binding result (TRAIL): no binding
- IC50 [7]: 17.1 nM
B7: I050A07 (scFv)
scFv: QVQLVQSGAEVKKPGASMKVSCKASAGRASAYGFAMHPIHWVRQAPGQGLEWMGWINGGTGNTKYSEKFLGRVTMTSDTSATTAYMELSSLRSEDTAVYYCARQDNDPLTGYKLGFDYWGKGTLVTVSSGGGGSGGGGSGGGGSAQSVVTQPPSVSGAPGQRVTISCTGSSTNVGAGYGVHWYQQFPETAPKLLIYGGSNRPSGVPDRFSGSQSGTSASLAITGLQAEDEADYYCQSYDTTLSGYVFGTGTKVTVLG

- binding result (TNF-alpha): no binding
- binding result (LIGHT): no binding
- binding result (Bovine serum albumin): no binding
- binding result (TNF-beta): no binding
- binding result (TRAIL): no binding
- IC50 [7]: 13 nM
B8: I074B12 (scFv)
scFv: EVQLVQSGAEVKKPGSSVKVSCRASGGSFNHAISWVRQAPGRGLEWMGGILPMYGTANYAQKFQGRVTITADKLTNTVYMDLSRLRYEDTAVYYCARELGLSIVGATTGALDMWGRGTLVTVSSGGGGSGGGGSGGGGSALSYELTQPPSASGTPGQRVTISCSGSTSNIGSNAVNWYRQLPGTAPKLLVYSNNQVPSGVPDRFSGSKSGTSASLAISGLQSEDEADYYCAAWDDSLSGYVFGTGTQLTVLS

- binding result [1]: binds
- binding result [2]: binds
B9: I080B01 (scFv)
scFv: QVQLVQSGAEVKKPGASVKVSCKASGYTFTNYYMHWVRQAPGQGLEWMGIINPRDVSTTYAQKFQGRATMTRDTSTSTVYMELNSLRSEDTAVYYCAREYSGYHYVEGGSYAMDVWGQGTMVTVSSGGGGSGGGGSGGGGSALSYVLTQPPSASGTPGQRVTITCSGSSSNIGNYYVNWYQQVSGTAPKLIIYRNNQRPSGVPDRFSGSKSGASASLAISGLRSEDEADYFCAAWDDSLREFVFGTGTKVTVLG
- binding result [3]: no binding (tested: 60 µg/ml competing antigen)

- binding result [4]: no binding
B10: I082H08 (scFv)
scFv: EVQLVESGGGLVQPGGSLRLSCAASGFTFSDYGMHWVRQRPGKGLEWIAFIGSDGSNKYYGDTVKGRFTISRDNAKNSLYLQMNSLRAEGTAVYYCARDWDMDVWGQGTMVTVSSGGGGSGGGGSGGGGSSHVILTQPRSVSGSPGQSVTISCTGTSSDVGGYHYVSWYQQHPGKAPRLMIYEVTKRPSGVSNRFSGSKSGNTASLTISGVQAEDEADYYCSSYTSASTVIFGGGTKLTVLG

Source: patent publication US20110293610A1 (published 2011)
